Data taken from patent publication US20260062466A1 (WASHINGTON UNIVERSITY, published 2026).

B1: 506.C01 (antibody, V domains shown)
VH: QVQLQESGPGLVKPSQTLSLTCTVSGGSISSDDYYWTWIRLPPGKGLEWIGYIFYTGGTYYNPSLKSRVTISLDRSKNQFSLKLSSVTAADTAVYFCARAPETYCSTTNCYKGYFDSWGQGTLVTVSS
VL: DIQMTQSPSSVSASVGDRVTITCRASQGISSWLGWYQQKPGKAPKLLIYAASSLQSGVPSRFSGSGSGTDFTLTISSLQPEDFATYYCQQANSFPRTFGQGTKVEIK
B2: 516.A10 (antibody, V domains shown)
VH: QVQMVESGGGVVQPGRSLRLSCAASGFTFSSYPIHWVRQVPGKGLEWVAVISYDGSNKYYADSVKGRFTISRDNSKNTLYLQMNSLRPEDTAVYFCARGRGDFELNSFDYWGQGTLVTVSS
VL: EIVLTQSPGTLSLSPGERATLSCRASQSVSSSYLGWYQQKLGQAPRLLIYGASSRATGIPDRFSGSGSGTDFTLTISRLEPEDFAVYYCQQYGSTPFTFGPGTKVDIK
B3: 506.A08 (antibody, V domains shown)
VH: EEQLVESGGGLVQPGGSLRLSCAASGFTFSSYSMNWVRQAPGKGLEWVSYISSSSSTIHYADSVKGRFTISRDNAKNSLYLQMNSLRAEDTAVYYCAREGNSGYEPLDYWGQGTLVTVSS
VL: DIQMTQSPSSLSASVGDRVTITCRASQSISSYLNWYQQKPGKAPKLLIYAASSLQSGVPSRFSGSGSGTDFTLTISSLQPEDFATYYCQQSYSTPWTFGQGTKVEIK

Each binder was assayed against CHIKV-LR 2006 (virus) (Chikungunya virus strain LR 2006) (assay: cell-based or functional assay).

Binder	FRNT neutralisation, LR 2006 EC50 [ng/mL]
B1	8
B2	4
B3	110

What follows are binders tested against CHIKV-37997 (virus) (Chikungunya virus strain 37997, UniProt Q5XXP3 326-748; Q5XXP3 810-1248) (assay: cell-based or functional assay).
CHIKV-37997 (virus), sequence (Q5XXP3 326-748 limits assumed, chain 1 of 2): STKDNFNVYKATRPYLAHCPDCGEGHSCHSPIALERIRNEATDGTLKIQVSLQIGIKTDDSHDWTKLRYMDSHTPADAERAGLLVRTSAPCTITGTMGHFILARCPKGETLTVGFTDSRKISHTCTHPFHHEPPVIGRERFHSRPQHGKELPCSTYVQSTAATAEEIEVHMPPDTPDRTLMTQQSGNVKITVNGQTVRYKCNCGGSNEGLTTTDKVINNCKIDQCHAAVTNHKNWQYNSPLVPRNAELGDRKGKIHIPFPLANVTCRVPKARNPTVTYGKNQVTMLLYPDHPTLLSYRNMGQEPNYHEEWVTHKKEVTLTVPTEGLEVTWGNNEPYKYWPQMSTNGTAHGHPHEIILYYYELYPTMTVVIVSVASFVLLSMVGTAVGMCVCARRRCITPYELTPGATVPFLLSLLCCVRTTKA
CHIKV-37997 (virus), sequence (Q5XXP3 810-1248 limits assumed, chain 2 of 2): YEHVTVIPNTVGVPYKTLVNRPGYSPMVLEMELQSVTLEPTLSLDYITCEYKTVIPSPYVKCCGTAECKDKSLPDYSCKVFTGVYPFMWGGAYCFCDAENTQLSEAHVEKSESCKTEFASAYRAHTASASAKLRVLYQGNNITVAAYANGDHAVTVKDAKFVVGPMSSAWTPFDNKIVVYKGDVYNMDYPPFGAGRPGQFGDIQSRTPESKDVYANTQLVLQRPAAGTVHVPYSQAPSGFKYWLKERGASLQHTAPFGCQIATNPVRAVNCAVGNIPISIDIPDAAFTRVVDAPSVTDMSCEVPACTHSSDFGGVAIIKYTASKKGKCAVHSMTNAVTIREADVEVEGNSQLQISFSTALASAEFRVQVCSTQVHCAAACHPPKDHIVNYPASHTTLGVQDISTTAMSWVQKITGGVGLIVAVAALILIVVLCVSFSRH

Binder	FRNT neutralisation, 37997 EC50 [ng/mL]
B1	2
B2	128
B3	72
